Laboratory results published in PMC12170172, “Initiation of ERAD by the bifunctional complex of Mnl1/Htm1 mannosidase and protein disulfide isomerase” (Nature Structural & Molecular Biology, 2025).
Where a chain is given by its changes, count along the chain named.

Assays:
Details in all cases: both partners purified
[1] = target: T1, Mnl1 (C579S;C644S)–Pdi1 complex (S. cerevisiae, UniProt P38888 21-796; P17967 29-522, C579S | C644S); test: pull-down; as a6, but the Mnl1–Pdi1 complex was pretreated with DPS to induce disulfides between the Mnl1 loop cysteines and the active-site cysteines of Pdi1
T1 construct: Mnl1 (Htm1) of S. cerevisiae with both loop cysteines substituted; Pdi1 of S. cerevisiae, untagged; also called double-cysteine mutant; source: S. cerevisiae, overexpressed, purified (anti-FLAG M2 resin, Superdex 200); not shown: FLAG, C-terminal, kept
T1 sequence (looked up) 1: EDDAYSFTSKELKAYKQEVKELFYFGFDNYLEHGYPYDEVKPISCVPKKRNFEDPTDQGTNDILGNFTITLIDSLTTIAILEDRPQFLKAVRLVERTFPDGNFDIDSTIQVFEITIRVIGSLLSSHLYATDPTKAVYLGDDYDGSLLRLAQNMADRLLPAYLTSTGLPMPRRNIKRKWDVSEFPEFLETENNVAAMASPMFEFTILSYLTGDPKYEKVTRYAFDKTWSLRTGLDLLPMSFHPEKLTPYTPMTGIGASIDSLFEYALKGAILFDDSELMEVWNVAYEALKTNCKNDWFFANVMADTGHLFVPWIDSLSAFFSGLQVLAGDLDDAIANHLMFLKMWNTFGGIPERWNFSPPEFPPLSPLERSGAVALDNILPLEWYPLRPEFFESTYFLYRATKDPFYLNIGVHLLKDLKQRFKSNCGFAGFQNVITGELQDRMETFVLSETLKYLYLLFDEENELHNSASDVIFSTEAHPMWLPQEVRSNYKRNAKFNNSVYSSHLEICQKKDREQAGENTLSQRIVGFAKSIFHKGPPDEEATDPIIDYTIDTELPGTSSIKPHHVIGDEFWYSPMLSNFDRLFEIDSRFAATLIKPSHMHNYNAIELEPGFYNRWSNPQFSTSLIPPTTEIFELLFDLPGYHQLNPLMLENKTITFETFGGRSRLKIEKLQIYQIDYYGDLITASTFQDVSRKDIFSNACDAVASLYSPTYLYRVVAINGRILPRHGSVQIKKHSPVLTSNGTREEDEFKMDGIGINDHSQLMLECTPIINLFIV
T1 sequence (looked up) 2: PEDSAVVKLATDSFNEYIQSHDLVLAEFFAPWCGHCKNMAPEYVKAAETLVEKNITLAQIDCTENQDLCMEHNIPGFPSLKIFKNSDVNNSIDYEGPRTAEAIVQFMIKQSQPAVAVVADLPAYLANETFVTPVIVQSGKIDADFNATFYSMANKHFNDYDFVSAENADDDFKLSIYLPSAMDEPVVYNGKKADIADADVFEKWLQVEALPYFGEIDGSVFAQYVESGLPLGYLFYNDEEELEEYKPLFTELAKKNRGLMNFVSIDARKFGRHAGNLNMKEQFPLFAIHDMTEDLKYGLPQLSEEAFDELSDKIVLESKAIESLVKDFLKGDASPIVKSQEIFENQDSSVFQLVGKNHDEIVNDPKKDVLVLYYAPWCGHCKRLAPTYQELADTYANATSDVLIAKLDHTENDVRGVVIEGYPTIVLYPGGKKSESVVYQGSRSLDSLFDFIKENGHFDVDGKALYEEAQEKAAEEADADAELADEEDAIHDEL

[2] = target: T2, Mnl1 (C579S)–Pdi1 complex (S. cerevisiae, UniProt P38888 21-796; P17967 29-522, C579S); test: as above
T2 construct: Mnl1 (Htm1) of S. cerevisiae with a substituted loop cysteine; Pdi1 of S. cerevisiae, untagged; source: S. cerevisiae, overexpressed, purified (anti-FLAG M2 resin, Superdex 200); not shown: FLAG, C-terminal, kept
T2 sequence (looked up) 1: T1 sequence (looked up) 1 with S624C
T2 sequence (looked up) 2: T1 sequence (looked up) 2

[3] = target: T3, Pdi1 (protein disulfide isomerase) (S. cerevisiae, UniProt P17967 29-522); test: cross-linking; competition: RBΔS, RBun or RBsc incubated with Mnl1–Pdi1 complex at the indicated molar ratios (tenfold excess in Fig. 6) in 25 mM HEPES pH 7.4, 150 mM NaCl, 0.1% Nonidet P-40, 2 mM CaCl2, 30 °C 30 min; then DPS 30 °C 30 min, N-ethylmaleimide; SDS-PAGE, Coomassie blue
T3 construct: Pdi1, protein disulfide isomerase of S. cerevisiae, untagged; Trx domains a, b, b′ and a′; amino acids 24–500 could be modelled; source: S. cerevisiae, overexpressed together with Mnl1–FLAG (GAL1 promoter), purified as a complex
T3 sequence (looked up): T1 sequence (looked up) 2

B1: RNase B, completely unfolded (reduced and denatured) (enzyme, UniProt P61823 27-150, looked up)
chain: KETAAAKFERQHMDSSTSAASSSNYCNQMMKSRNLTKDRCKPVNTFVHESLADVQAVCSQKNVACKNGQTNCYQSYSTMSITDCRETGSSKYPNCAYKTTQANKHIIVACEGNPYVPVHFDASV
modifications: N-glycan; cysteines reduced; DyLight 680 (NHS ester) label in the pull-downs
notes: RNase B, reduced and denatured; also called RBun; unfolded RNase B; source: prepared from RB with 6 M guanidine hydrochloride and 100 mM DTT, denaturants removed by dialysis and a desalting column
Q: Does B1 bind [1]?
A: binds

Q: Does B1 bind [2]?
A: binds

Q: What about the “molar excess for half-maximal inhibition of the Mnl1–Pdi1 disulfide adduct” value [3] of the same binder?
A: 2 fold molar excess
